Consider two substances from patent publication US20250277790A1.

The target in assay [1] is human EGFR tagged with the fluorescent protein mTurquoise at the C-terminus (wild-type), in plasma membrane-derived vesicles from transfected CHO cells (human) (UniProt P00533). Briefly: cell-based or functional assay.
The target of assay [2] is L834R EGFR tagged with mTurquoise at the C-terminus, in plasma membrane-derived vesicles from transfected CHO cells (human) (UniProt P00533). Briefly: cell-based or functional assay.

Epiregulin (1195EP025 CF, R&D Systems), sequence (O14944 63-108 limits assumed): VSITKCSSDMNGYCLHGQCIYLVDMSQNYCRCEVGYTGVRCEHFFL

In assay [1], “Epiregulin (1195EP025 CF, R&D Systems) (from UniProt O14944 63-108) (ligand)” returned an EC50 of Y1068 phosphorylation per EGFR molecule of 19.5 nM, an EC50 of Y1173 phosphorylation per EGFR molecule of 16.2 nM, an Etop of Y1068 phosphorylation per EGFR molecule of 0.43 and an Etop of Y1173 phosphorylation per EGFR molecule of 0.16. In addition, the βlig (Y1068 vs Y1173), lig vs rho-mEGF in assay [1] is -0.23. In addition, in assay [2], the EC50 of Y1068 phosphorylation per EGFR molecule is 5.8 nM, the EC50 of Y1173 phosphorylation per EGFR molecule was determined as 0.7 nM, the Etop of Y1068 phosphorylation per EGFR molecule came to 0.2 and the Etop of Y1173 phosphorylation per EGFR molecule was 0.09.

Turning to “TGFα (239A100, R&D Systems) (from UniProt P01135 40-89) (ligand)”, in assay [1], the EC50 of Y1068 phosphorylation per EGFR molecule stood at 3.4 nM, the EC50 of Y1173 phosphorylation per EGFR molecule came to 5.2 nM, the Etop of Y1068 phosphorylation per EGFR molecule amounted to 0.59 and the Etop of Y1173 phosphorylation per EGFR molecule was 0.17. In assay [1], this substance showed a βlig (Y1068 vs Y1173), lig vs rho-mEGF of 0.13. In assay [2], this substance showed an EC50 of Y1068 phosphorylation per EGFR molecule of 3.2 nM, an EC50 of Y1173 phosphorylation per EGFR molecule of 0.3 nM, an Etop of Y1068 phosphorylation per EGFR molecule of 0.17 and an Etop of Y1173 phosphorylation per EGFR molecule of 0.12.
